PMC3940207 (Molecular cell, 2014)
Each block holds one molecule with its values, some of them ahead of it.

Experiments:
[1] = target: single chain H2B_(36-130) and H2A.Z_(22-118) chimera; assay: AUC
[2] = target: single chain H2B_(36-130) and H2A.Z_(22-118) chimera; assay: ITC
Swr1_(504-650) = target: T1, Swr1_(504-650) (S. cerevisiae, UniProt Q05471 505-651); assay: ITC
T1 sequence (looked up): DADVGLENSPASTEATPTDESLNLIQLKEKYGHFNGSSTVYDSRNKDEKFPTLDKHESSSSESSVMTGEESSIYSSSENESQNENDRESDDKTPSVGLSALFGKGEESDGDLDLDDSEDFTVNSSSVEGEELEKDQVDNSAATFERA

stoichiometry N [1]: 1
Molecule: Swr1_(589-650) (from UniProt Q05471 590-651) (domain or fragment)

Kd [2]: 7 nM
Molecule: Swr1_(504-650) (from UniProt Q05471 505-651) (domain or fragment)

Kd (Swr1_(504-650)): ~151 nM
B1: scH2B-H2A (other)
chain: MRKETYSSYIYKVLKQTHPDTGISQKSMSILNSFVNDIFERIATEASKLAAYNKKSTISAREIQTAVRLILPGELAKHAVSEGTRAVTKYSSSTQAQSRSAKAGLTFPVGRVHRLLRRGNYAQRIGSGAPVYLTAVLEYLAAEILELAGNAARDNKKTRIIPRHLQLAIRNDDELNKLLGNVTIAQGGVLPNI
